Experimental data taken from the supplement of paper PMC10567573.

B1: IKZF1 (parent)
chain: YHSQDRYEFSSHITRGEHRFHMS
B2: STX5 (parent)
chain: RSEFTLMAKRIGKDLSNTFAKLEK

Variants of: B1
Assay: protein stability index of a GFP-peptide fusion (GPS, HEK-293T) (PSI 1-6); higher = more stable
Conditions: c terminus: native
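Note: lentivirally expressed fusions sorted by FACS into six bins by GFP to DsRed ratio, PSI derived from sequencing read proportions per bin multiplied by bin number.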

Going from E8R to E8A, the protein stability index rises from 1.8 to 2.79.

Going from E8P to E8D, the protein stability index falls from 3.38 to 2.45.

Compared with Q4L, Q4I is lower in protein stability index: 2.08 for the first, 1.57 for the second.

Compared with Q4C, Q4T is higher in protein stability index: 1.44 for the first, 1.63 for the second.

Compared with Q4D, D5A is lower in protein stability index: 2.75 for the first, 1.5 for the second.

Compared with D5L, D5K is higher in protein stability index: 2.17 for the first, 3.72 for the second.

Going from D5G to H18Y, the protein stability index falls from 2.85 to 1.83.

Compared with H18E, H18A is lower in protein stability index: 1.97 for the first, 1.45 for the second.

Going from H18S to H18F, the protein stability index rises from 1.83 to 2.66.

Going from H18Q to H18N, the protein stability index falls from 1.72 to 1.45.

Compared with R6V, R6I is higher in protein stability index: 2.07 for the first, 2.25 for the second.

Compared with R6A, R6F is higher in protein stability index: 2.22 for the first, 3.44 for the second.

First: R6E
Second: R6C
The protein stability index of the first is lower: 2.29 for the first, 2.84 for the second.

Going from T14N to T14A, the protein stability index rises from 2.24 to 2.38.

Compared with T14R, T14D is lower in protein stability index: 2.07 for the first, 1.83 for the second.

First: T14I
Second: T14E
The protein stability index of the first is higher: 2.15 for the first, 1.68 for the second.

Compared with T14S, I13S is higher in protein stability index: 1.85 for the first, 2.03 for the second.

First: I13C
Second: I13D
The protein stability index of the first is higher: 2.08 for the first, 1.52 for the second.

Going from I13W to I13K, the protein stability index rises from 1.71 to 1.82.

Compared with I13T, G16V is lower in protein stability index: 1.97 for the first, 1.35 for the second.

First: G16D
Second: G16C
The protein stability index of the first is lower: 2.52 for the first, 2.74 for the second.

Going from S23D to S23T, the protein stability index rises from 1.5 to 2.02.

Going from S23N to S23M, the protein stability index falls from 2.08 to 1.62.

Going from R15E to R15H, the protein stability index falls from 1.81 to 1.73.

Going from R15A to R15F, the protein stability index falls from 2.46 to 2.34.

Compared with R15N, R15Y is higher in protein stability index: 1.99 for the first, 2.29 for the second.

Compared with S11P, S11E is lower in protein stability index: 3.03 for the first, 2.15 for the second.

Going from S11Y to H12F, the protein stability index rises from 1.67 to 2.04.

Going from H12I to H12K, the protein stability index rises from 1.92 to 2.31.

First: H12Y
Second: S3M
The protein stability index of the first is higher: 1.98 for the first, 1.95 for the second.

Compared with S3G, S3P is higher in protein stability index: 2 for the first, 2.5 for the second.

Compared with E17M, E17R is higher in protein stability index: 1.71 for the first, 1.94 for the second.

Compared with E17I, E17V is lower in protein stability index: 2.84 for the first, 1.68 for the second.

Going from S10G to S10C, the protein stability index falls from 1.92 to 1.56.

First: S10H
Second: S10I
The protein stability index of the first is lower: 1.84 for the first, 1.92 for the second.

Going from M22K to R19K, the protein stability index rises from 1.46 to 1.95.

Going from R19V to R19I, the protein stability index rises from 2.16 to 2.17.

Going from R19A to R19Q, the protein stability index falls from 2.47 to 2.28.

Compared with R19E, H2Q is lower in protein stability index: 3.06 for the first, 2.4 for the second.

Going from H2R to H21F, the protein stability index falls from 3.37 to 1.98.

First: H21L
Second: H21M
The protein stability index of the first is higher: 2.13 for the first, 1.6 for the second.

First: H21D
Second: Y1E
The protein stability index of the first is lower: 2.15 for the first, 4 for the second.

Going from Y1K to Y1L, the protein stability index rises from 2.12 to 3.37.

Compared with Y1M, Y1D is higher in protein stability index: 3.5 for the first, 4.05 for the second.

First: Y1F
Second: F20S
The protein stability index of the first is lower: 1.73 for the first, 2.05 for the second.

Compared with F20E, F20I is higher in protein stability index: 1.42 for the first, 3.73 for the second.

Compared with F20V, F20L is higher in protein stability index: 1.39 for the first, 2.37 for the second.

Compared with Y7H, Y7T is higher in protein stability index: 1.49 for the first, 1.85 for the second.

Going from Y7W to Y7D, the protein stability index falls from 2.46 to 2.26.

Going from Y7K to F9Y, the protein stability index rises from 1.51 to 1.95.

First: F9Q
Second: F9I
The protein stability index of the first is lower: 1.17 for the first, 2.03 for the second.

Variants of: B2
Assay: as above
Conditions: c terminus: a fixed tail appended

Compared with R1T, R1H is higher in protein stability index: 2.7 for the first, 3.98 for the second.

Going from R1A to R1P, the protein stability index rises from 2.12 to 2.63.

Compared with R1V, R1E is lower in protein stability index: 2.54 for the first, 1.45 for the second.

Compared with R1K, R1S is higher in protein stability index: 2.08 for the first, 2.54 for the second.

Going from R1Y to R1Q, the protein stability index falls from 4.8 to 1.49.

First: R1L
Second: R1D
The protein stability index of the first is higher: 3.25 for the first, 1.92 for the second.

First: R1N
Second: R1I
The protein stability index of the first is lower: 1.82 for the first, 1.92 for the second.

Compared with I11H, I11E is higher in protein stability index: 3.46 for the first, 3.9 for the second.

Compared with I11M, I11N is higher in protein stability index: 1.65 for the first, 4.29 for the second.

Going from I11P to I11G, the protein stability index falls from 3.52 to 3.41.

First: I11W
Second: I11Q
The protein stability index of the first is lower: 1.18 for the first, 3.33 for the second.

Compared with I11D, I11R is lower in protein stability index: 3.84 for the first, 3.81 for the second.

Going from I11T to I11F, the protein stability index rises from 3.13 to 3.65.

Compared with I11C, I11L is lower in protein stability index: 2.06 for the first, 1.57 for the second.

First: I11A
Second: I11V
The protein stability index of the first is higher: 2.77 for the first, 1.16 for the second.

Going from I11K to I11S, the protein stability index rises from 2.93 to 3.87.

First: I11Y
Second: L15A
The protein stability index of the first is lower: 2.14 for the first, 2.59 for the second.

Compared with L15S, L15H is lower in protein stability index: 2.81 for the first, 2.6 for the second.

Compared with L15V, L15Y is higher in protein stability index: 1.9 for the first, 2.4 for the second.

Compared with L15Q, L15G is higher in protein stability index: 3.1 for the first, 3.75 for the second.

First: L15C
Second: L15W
The protein stability index of the first is lower: 1.53 for the first, 2.05 for the second.

Compared with L15T, L15K is lower in protein stability index: 3.27 for the first, 3.24 for the second.

First: L15D
Second: L15N
The protein stability index of the first is lower: 3.46 for the first, 3.79 for the second.

Going from L15P to L15E, the protein stability index rises from 3.14 to 3.89.

First: L15F
Second: L15M
The protein stability index of the first is higher: 2.92 for the first, 2.72 for the second.

Compared with L15I, L15R is lower in protein stability index: 3.43 for the first, 2.97 for the second.

First: S16G
Second: S16C
The protein stability index of the first is higher: 2.41 for the first, 1.65 for the second.

Going from S16D to S16E, the protein stability index falls from 2.45 to 1.41.

Going from S16F to S2F, the protein stability index falls from 4.43 to 2.72.

First: S2G
Second: S2C
The protein stability index of the first is lower: 1.51 for the first, 3.2 for the second.

Compared with S2N, S2Q is higher in protein stability index: 1.03 for the first, 3.27 for the second.

First: S2T
Second: S2W
The protein stability index of the first is lower: 1.9 for the first, 2.39 for the second.

S2D showed a protein stability index of 1.66.
